# Assay results reported in US20240058465A1 (SUTRO BIOPHARMA, published 2024).
# Substitutions are numbered along the chain they refer to.
# B1: SRP2188-C05 (antibody, IgG1, V domains shown)
# VH: EVQLVESGGGLVQPGGSLRLSCAASGFNINSFDIHWVRQAPGKGLEWVGGIDPRDGSTDSADSVKGRFTISADTSKNTAYLQMNSLRAEDTAVYYCARDYGVFDYWGQGTLVTVSS
# VL: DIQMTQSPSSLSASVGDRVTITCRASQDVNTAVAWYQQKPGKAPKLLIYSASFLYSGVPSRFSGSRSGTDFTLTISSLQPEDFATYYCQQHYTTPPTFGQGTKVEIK
# notes: IgG1 with trastuzumab LC; HIS- and FLAG-tagged; cell-free expressed
# B2: SRP2188-D05 (antibody, IgG1, V domains shown)
# VH: B1 VH with N30S, S31E, F32Y, R54H, S57W, S60H, F103Y
# VL: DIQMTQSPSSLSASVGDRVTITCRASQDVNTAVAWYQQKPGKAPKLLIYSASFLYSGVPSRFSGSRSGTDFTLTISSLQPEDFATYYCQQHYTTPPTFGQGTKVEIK
# notes: as for B1
# B3: SRP2188-E06 (antibody, IgG1, V domains shown)
# VH: B1 VH with N30G, S31D, F32Y, R54E, S57A, S60I, N84D
# VL: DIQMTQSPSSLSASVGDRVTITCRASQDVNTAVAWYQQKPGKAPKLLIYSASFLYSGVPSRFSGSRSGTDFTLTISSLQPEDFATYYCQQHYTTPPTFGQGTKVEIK
# notes: as for B1
# B4: SRP2188-F05 (antibody, IgG1, V domains shown)
# VH: B1 VH with N30S, S31D, F32Y, S57A
# VL: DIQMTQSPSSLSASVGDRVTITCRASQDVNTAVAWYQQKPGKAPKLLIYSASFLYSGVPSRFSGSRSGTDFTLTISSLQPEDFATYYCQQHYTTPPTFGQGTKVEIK
# notes: as for B1
# B5: SRP2188-A10 (antibody, IgG1, V domains shown)
# VH: B1 VH with F32Y, G50W, D52N, R54E, S57D, D59S, S60H
# VL: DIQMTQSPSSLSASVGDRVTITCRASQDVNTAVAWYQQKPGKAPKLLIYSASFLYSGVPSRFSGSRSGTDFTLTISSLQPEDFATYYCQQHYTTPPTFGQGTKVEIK
# notes: as for B1
# B6: SRP2188-F10 (antibody, IgG1, V domains shown)
# VH: B1 VH with N30S, S31V, R54N, S57A, S60H
# VL: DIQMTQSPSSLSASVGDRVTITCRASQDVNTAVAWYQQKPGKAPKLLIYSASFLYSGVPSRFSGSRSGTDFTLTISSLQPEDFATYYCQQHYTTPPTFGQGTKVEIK
# notes: as for B1
# B7: SRP2188-D11 (antibody, IgG1, V domains shown)
# VH: B1 VH with P14T, N30R, S31D, F32Y, G50L, R54D, S60E
# VL: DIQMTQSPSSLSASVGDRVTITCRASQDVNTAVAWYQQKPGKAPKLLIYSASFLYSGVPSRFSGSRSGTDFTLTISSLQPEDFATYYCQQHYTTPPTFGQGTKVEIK
# notes: as for B1
# B8: SRP2188-B06 (antibody, IgG1, V domains shown)
# VH: B1 VH with N30H, F32Y, K43E, G50W, D52N, R54D, S57D, D59Y, S60H
# VL: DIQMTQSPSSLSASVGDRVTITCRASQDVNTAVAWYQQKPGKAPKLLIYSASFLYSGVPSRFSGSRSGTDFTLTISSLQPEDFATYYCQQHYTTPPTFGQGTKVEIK
# notes: as for B1
# B9: SRP2188-C04 (antibody, IgG1, V domains shown)
# VH: B1 VH with F32Y, G50W, D52N, R54E, S57D, D59Y, S60H, K65R, F103Y
# VL: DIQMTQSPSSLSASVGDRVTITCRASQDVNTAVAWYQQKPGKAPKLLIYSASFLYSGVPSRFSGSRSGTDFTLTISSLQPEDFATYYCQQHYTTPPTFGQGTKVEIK
# notes: as for B1
# B10: SRP2188-D08 (antibody, IgG1, V domains shown)
# VH: B1 VH with N30R, S31D, F32Y, G49V, R54D, S57A, S60E
# VL: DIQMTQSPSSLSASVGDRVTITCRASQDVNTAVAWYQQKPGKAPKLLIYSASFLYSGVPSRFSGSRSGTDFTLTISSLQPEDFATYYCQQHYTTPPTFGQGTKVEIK
# notes: as for B1
# B11: SRP2188-F01 (antibody, IgG1, V domains shown)
# VH: B1 VH with N30R, S31Y, F32Y, G50L, R54D, S57W, D59V
# VL: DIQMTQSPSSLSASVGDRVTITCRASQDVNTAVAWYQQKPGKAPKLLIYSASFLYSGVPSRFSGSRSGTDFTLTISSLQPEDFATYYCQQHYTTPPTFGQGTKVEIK
# notes: as for B1
# B12: SRP2188-E05 (antibody, IgG1, V domains shown)
# VH: B1 VH with N30S, S31D, F32Y, G49A, D52E, R54W, S60H
# VL: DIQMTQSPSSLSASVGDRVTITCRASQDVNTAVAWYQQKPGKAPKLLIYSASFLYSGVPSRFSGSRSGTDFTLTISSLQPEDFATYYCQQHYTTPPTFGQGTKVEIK
# notes: as for B1
# B13: SRP2188-C11 (antibody, IgG1, V domains shown)
# VH: B1 VH with N30K, F32Y, G50W, D52N, R54D, S57D, D59Y, S60L
# VL: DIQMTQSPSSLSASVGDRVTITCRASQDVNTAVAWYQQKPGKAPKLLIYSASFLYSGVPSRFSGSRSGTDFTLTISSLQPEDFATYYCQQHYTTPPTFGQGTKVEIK
# notes: as for B1
# B14: SRP2188-F02 (antibody, IgG1, V domains shown)
# VH: B1 VH with N30S, S31D, F32Y, G49A, G50W, R54S, D59E, S60H, N84S
# VL: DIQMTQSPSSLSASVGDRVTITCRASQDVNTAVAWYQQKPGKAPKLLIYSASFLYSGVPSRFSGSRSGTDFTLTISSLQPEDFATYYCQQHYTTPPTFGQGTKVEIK
# notes: as for B1
# B15: SRP2188-B10 (antibody, IgG1, V domains shown)
# VH: B1 VH with F32Y, G50W, D52N, R54H, S57D, D59Y, S60H
# VL: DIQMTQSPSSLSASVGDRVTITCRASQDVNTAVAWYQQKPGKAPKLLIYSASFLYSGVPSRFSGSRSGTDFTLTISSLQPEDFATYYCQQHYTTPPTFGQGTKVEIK
# notes: as for B1
# B16: SRP2188-B09 (antibody, IgG1, V domains shown)
# VH: B1 VH with F32Y, G50V, R54K, S57W, S60H, A88T
# VL: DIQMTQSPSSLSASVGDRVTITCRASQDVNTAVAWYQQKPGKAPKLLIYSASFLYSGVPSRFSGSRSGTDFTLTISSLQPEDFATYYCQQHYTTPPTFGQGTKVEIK
# notes: as for B1
# B17: SRP2188-A11 (antibody, IgG1, V domains shown)
# VH: B1 VH with N30S, S31D, F32Y, G49S, G50L, R54K, S57A, E89G
# VL: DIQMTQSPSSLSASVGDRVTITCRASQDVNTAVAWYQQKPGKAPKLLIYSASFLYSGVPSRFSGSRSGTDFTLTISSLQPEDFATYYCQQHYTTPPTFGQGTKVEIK
# notes: as for B1
# Target: T1, human ROR1 (hROR1) expressed on cells (human, UniProt Q01973 30-937)
# T1 construct: Mino cells are the target positive cells of the killing assay; also called receptor tyrosine kinase like orphan receptor 1; HCT 116-hROR1
# Assay: flow cytometry, HCT116-hROR1 cells
Binder,Bmax (MFI),Kd
B1,9510 MFI,0.06 nM
B2,9840 MFI,0.04 nM
B3,9970 MFI,0.04 nM
B4,9620 MFI,0.04 nM
B5,9150 MFI,0.03 nM
B6,8480 MFI,0.03 nM
B7,9600 MFI,0.02 nM
B8,9130 MFI,0.06 nM
B9,9500 MFI,0.03 nM
B10,9600 MFI,0.05 nM
B11,8660 MFI,0.02 nM
B12,10600 MFI,0.05 nM
B13,9210 MFI,0.04 nM
B14,9850 MFI,0.03 nM
B15,9000 MFI,0.04 nM
B16,9420 MFI,0.05 nM
B17,8340 MFI,0.06 nM

# Target: T2, human ROR1-ECD (human, UniProt Q01973 30-406)
# T2 construct: Bought protein; also called hROR1; ROR1-extracellular domain
# Assay: SPR (Biacore), antibody captured by anti-Fc, human ROR1-ECD analyte
# Procedure: Anti-Fc polyclonal antibodies were immobilized onto a CMS chip (GE Life Sciences) using amine coupling chemistry (from Amine Coupling Kit, GE Life Sciences). The immobilization steps were carried out at a flow rate of 25 μL/min in 1×HBS-EP+buffer (GE Life Sciences; 10× Stock diluted before use). The sensor surfaces were activated for 7 min with a mixture of NHS (0.05 M) and EDC (0.2 M). The Anti-Fc antibodies were injected over all 4 flow cells at a concentration of 25 ug/ml in 10 mM sodium acetate, pH 4.5, for 7 min. Ethanolamine (1 M, pH 8.5) was injected for 7 min to block any remaining activated groups.
# Off-rate and kinetic binding experiments were performed at 25° C. using 1×HBS-EP+buffer. Test and control antibodies were injected over the anti-Fc surface at concentrations of 5-10 μg/mL for 12 seconds at a flow rate of 10 μL/min on flow cells 2, 3 and 4, followed by a buffer wash for 30 seconds at the same flow rate. […] After capturing ligand (antibody) on the anti-Fc surface, the analyte (hROR1, Fz or Kr domains, Acro Biosystems, Delaware) was bound for 180 seconds, followed by a 600 second dissociation phase at a flow rate of 50 μL/min. Between each ligand capture and analyte binding cycle, regeneration was carried out using 2 injections of 10 mM Glycine pH 2.0 for 30 seconds at 30 μL/min, followed by a 30 second buffer wash step.
Binder,Kd,koff,kon
B1,0.427 nM,0.000453 s⁻¹,1.06e+06 M⁻¹ s⁻¹
B2,0.48 nM,0.000359 s⁻¹,747000 M⁻¹ s⁻¹
B3,0.438 nM,0.000346 s⁻¹,790000 M⁻¹ s⁻¹
B4,0.587 nM,0.00051 s⁻¹,870000 M⁻¹ s⁻¹
B5,0.426 nM,0.000222 s⁻¹,522000 M⁻¹ s⁻¹
B6,0.399 nM,0.000399 s⁻¹,1e+06 M⁻¹ s⁻¹
B7,0.741 nM,0.00055 s⁻¹,743000 M⁻¹ s⁻¹
B8,0.504 nM,0.000467 s⁻¹,927000 M⁻¹ s⁻¹
B9,0.139 nM,0.000101 s⁻¹,723000 M⁻¹ s⁻¹
B10,0.381 nM,0.000268 s⁻¹,703000 M⁻¹ s⁻¹
B11,0.546 nM,0.000316 s⁻¹,578000 M⁻¹ s⁻¹
B12,0.369 nM,0.00031 s⁻¹,840000 M⁻¹ s⁻¹
B13,0.873 nM,0.000617 s⁻¹,707000 M⁻¹ s⁻¹
B15,0.462 nM,0.000539 s⁻¹,1.17e+06 M⁻¹ s⁻¹
B16,0.657 nM,0.000579 s⁻¹,882000 M⁻¹ s⁻¹
B17,0.354 nM,0.000379 s⁻¹,1.07e+06 M⁻¹ s⁻¹
